Here are results for 91 sequences from the supplement of paper PMC9112550, “Optimization of the antimicrobial peptide Bac7 by deep mutational scanning” (BMC Biology, 2022).
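Note: peptides expressed intracellularly from a pBAD plasmid library in pooled LB shake-flask culture, induced with 0.3% L-arabinose, DNA abundance read by NGS, three biological replicates, DESeq2 with apeglm shrinkage.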

The test system of this data set is Escherichia coli TOP10. Put plainly: shrunken log2 fold change of peptide-encoding DNA abundance (4.5 h post-induction vs induction); higher = less antimicrobial activity (less host growth inhibition). The note with it: time post-induction: 4.5 h; library: site-saturation at positions 5, 18, 19, 20.
With RRIRVRPPRLPRPRPRPQTEPRP, the “shrunken log2 fold change” value is -0.134. Next, RRIRQRPPRLPRPRPRPGMGPRP: 0.33; RRIRIRPPRLPRPRPRPPTKPRP: 0.126; RRIRDRPPRLPRPRPRPNQVPRP: -0.329.

Take RRIRIRPPRLPRPRPRPWMQPRP: the “shrunken log2 fold change” value is -0.182.

In the case of RRIRFRPPRLPRPRPRPHSPPRP, the “shrunken log2 fold change” value was -0.389. Next, RRIRQRPPRLPRPRPRPATFPRP: 0.157; RRIRRRPPRLPRPRPRPCWMPRP: 0.415. Next, RRIRERPPRLPRPRPRPWCQPRP: -0.0135; RRIRRRPPRLPRPRPRPLWWPRP: 0.48; RRIRRRPPRLPRPRPRPVSGPRP: 0.366. For RRIRSRPPRLPRPRPRPYWSPRP, the “shrunken log2 fold change” value is -0.414. Next, RRIRLRPPRLPRPRPRPFNSPRP: -0.431. RRIRFRPPRLPRPRPRPIMRPRP: the “shrunken log2 fold change” value came to 0.0101. For RRIRCRPPRLPRPRPRPMQMPRP the value was 0.0279; for RRIRFRPPRLPRPRPRPFEDPRP, -0.0916. For RRIRWRPPRLPRPRPRPEQAPRP the value was -0.0201; for RRIRARPPRLPRPRPRPSTWPRP, -0.0645; for RRIRCRPPRLPRPRPRPGVSPRP, 0.0886. On to RRIRVRPPRLPRPRPRPWGRPRP, for which the “shrunken log2 fold change” value came to 0.0354. Consider RRIRQRPPRLPRPRPRPCKNPRP, for which the “shrunken log2 fold change” value was -0.409. For RRIRLRPPRLPRPRPRPWQPPRP the value was -0.0454; for RRIRERPPRLPRPRPRPHMEPRP, -0.118. Turning to RRIRHRPPRLPRPRPRPVKDPRP, the “shrunken log2 fold change” value was -0.549. For RRIRGRPPRLPRPRPRPHTIPRP the value was 0.151; for RRIRHRPPRLPRPRPRPIIAPRP, -0.272. Take RRIRTRPPRLPRPRPRPFKHPRP: the “shrunken log2 fold change” value is -0.126. Take RRIRHRPPRLPRPRPRPRGYPRP: the “shrunken log2 fold change” value was -0.144.

RRIRLRPPRLPRPRPRPKWRPRP: the “shrunken log2 fold change” value was found to be 0.39. For the sequence RRIRVRPPRLPRPRPRPHPRPRP, the “shrunken log2 fold change” value amounted to 0.555.

Regarding RRIRVRPPRLPRPRPRPCKTPRP, the “shrunken log2 fold change” value was -0.00208. Next, RRIRMRPPRLPRPRPRPSAGPRP: 0.655; RRIRWRPPRLPRPRPRPLEFPRP: 0.0696. Next, RRIRHRPPRLPRPRPRPAWGPRP: 0.542.

As to RRIRDRPPRLPRPRPRPFKKPRP, the “shrunken log2 fold change” value was -0.145. For RRIRQRPPRLPRPRPRPLWSPRP the value was -0.147. For RRIRLRPPRLPRPRPRPREIPRP the value was 0.0725. For the sequence RRIRMRPPRLPRPRPRPYPGPRP, the “shrunken log2 fold change” value was 0.0814.

For RRIRKRPPRLPRPRPRPMRGPRP, the “shrunken log2 fold change” value stood at 0.874. RRIRKRPPRLPRPRPRPCAMPRP: the “shrunken log2 fold change” value stood at 0.367.

As for RRIRWRPPRLPRPRPRPHSPPRP, the “shrunken log2 fold change” value was -0.09. Next, RRIRARPPRLPRPRPRPVLHPRP: 0.288; RRIRMRPPRLPRPRPRPLCMPRP: 0.0571; RRIRDRPPRLPRPRPRPAEYPRP: -0.491.

RRIRLRPPRLPRPRPRPLPVPRP: the “shrunken log2 fold change” value was found to be 0.0348. As to RRIRRRPPRLPRPRPRPQKGPRP, the “shrunken log2 fold change” value is -0.138. In the case of RRIRKRPPRLPRPRPRPIPGPRP, the “shrunken log2 fold change” value is -0.0379.

With RRIRCRPPRLPRPRPRPVKQPRP, the “shrunken log2 fold change” value was -0.222. For the sequence RRIRSRPPRLPRPRPRPCKLPRP, the “shrunken log2 fold change” value was -0.218. Next, RRIRWRPPRLPRPRPRPDLSPRP: 0.000407; RRIRPRPPRLPRPRPRPRWEPRP: 0.444; RRIRLRPPRLPRPRPRPNGDPRP: -0.00192. With RRIRPRPPRLPRPRPRPFDEPRP, the “shrunken log2 fold change” value was -0.0622. For the sequence RRIRDRPPRLPRPRPRPECYPRP, the “shrunken log2 fold change” value is -0.00335.

Regarding RRIRKRPPRLPRPRPRPQDAPRP, the “shrunken log2 fold change” value was 0.027. For RRIRLRPPRLPRPRPRPRQIPRP the value was 0.211.

As to RRIRTRPPRLPRPRPRPTCHPRP, the “shrunken log2 fold change” value was -0.405. Next, RRIRGRPPRLPRPRPRPEKNPRP: 0.921. On to RRIRYRPPRLPRPRPRPNNHPRP, for which the “shrunken log2 fold change” value was -1.1. For RRIRHRPPRLPRPRPRPSWPPRP the value was -0.00928; for RRIRCRPPRLPRPRPRPLCWPRP, 0.132. Next, RRIRLRPPRLPRPRPRPYKPPRP: -0.789; RRIRSRPPRLPRPRPRPDYIPRP: -0.443; RRIRMRPPRLPRPRPRPPCTPRP: 0.738. For RRIRGRPPRLPRPRPRPISEPRP the value was 0.0792. Regarding RRIRPRPPRLPRPRPRPELHPRP, the “shrunken log2 fold change” value was 0.0832.

RRIRDRPPRLPRPRPRPNPHPRP: the “shrunken log2 fold change” value was -0.247.

Take RRIRFRPPRLPRPRPRPFMNPRP: the “shrunken log2 fold change” value was -0.03. As to RRIRERPPRLPRPRPRPKLRPRP, the “shrunken log2 fold change” value was -0.0804.

RRIRFRPPRLPRPRPRPGLKPRP: the “shrunken log2 fold change” value is 0.0731. Next, RRIRGRPPRLPRPRPRPVMKPRP: 0.729; RRIRRRPPRLPRPRPRPVCMPRP: 0.32. On to RRIRKRPPRLPRPRPRPSGTPRP, for which the “shrunken log2 fold change” value worked out at 0.113. In the case of RRIRRRPPRLPRPRPRPAQCPRP, the “shrunken log2 fold change” value was determined as 0.152.

As for RRIRERPPRLPRPRPRPCDGPRP, the “shrunken log2 fold change” value worked out at 0.142. For the sequence RRIRDRPPRLPRPRPRPFSWPRP, the “shrunken log2 fold change” value worked out at 0.198. For RRIRMRPPRLPRPRPRPVFHPRP the value was -0.341; for RRIRHRPPRLPRPRPRPAPLPRP, 0.16.

Take RRIRHRPPRLPRPRPRPRTDPRP: the “shrunken log2 fold change” value worked out at 0.0682. Next, RRIRCRPPRLPRPRPRPWFHPRP: -1.28; RRIRDRPPRLPRPRPRPNFSPRP: -0.0622; RRIRHRPPRLPRPRPRPVSPPRP: 0.183. As for RRIRERPPRLPRPRPRPHWNPRP, the “shrunken log2 fold change” value was -0.843. For the sequence RRIRLRPPRLPRPRPRPLIKPRP, the “shrunken log2 fold change” value is -0.273.

For the sequence RRIRQRPPRLPRPRPRPGAVPRP, the “shrunken log2 fold change” value came out at 0.274. Next, RRIRWRPPRLPRPRPRPECRPRP: 0.88. For RRIRSRPPRLPRPRPRPGMSPRP, the “shrunken log2 fold change” value is -0.0403. With RRIRVRPPRLPRPRPRPNWGPRP, the “shrunken log2 fold change” value was 0.119. Next, RRIRQRPPRLPRPRPRPMILPRP: -0.109; RRIRPRPPRLPRPRPRPTESPRP: -0.041; RRIRLRPPRLPRPRPRPIHVPRP: -0.0124.
